Measurements taken from patent US20220267379A1 (ECOLE POLYTECHNIQUE FEDERALE DE LAUSANNE EPFL, published 2022).
Positions of bridges follow the written chain, without caps; N, C: chain ends. Non-standard residues stand in square brackets, D forms with d. Primed or numbered codes have the meaning given here. Chains are numbered I, II in the order given. No end group written: not given here. *: point of attachment. Palmitoyl = CCCCCCCCCCCCCCCC(=O)*; PEG2′ = PEG2 spacer unit

Experiments:
[1] = biological target: T1, human serum albumin (HSA) (human, UniProt P02768 25-609); assay: fluorescence polarization, dilution series of human serum
Description: (b) Kd values of conjugates for HSA assessed by fluorescence polarization. A dilution serious of human serum was used. […] All data represent the mean of three measurements ±SD.
Thus, the dissociation constants (Kd) of the molecules for HSA were tested with a fluorescence polarization (FP) assay using the fluorescein moiety in the albumin tag. The fluorescence anisotropy of the molecules in a dilution series of human serum was measured and Kd values were calculated.

[2] = biological target: T2, human Kallikrein-related peptidase 5 (hKLK5) (human, UniProt Q9Y337 67-293, limits assumed); assay: substrate-based activity assay in the presence of 25 µM HSA
T2 construct: Active protease used in substrate-based activity assays and immobilized for phage selection; also called stratum corneum tryptic enzyme (SCTE)
T2 sequence (Q9Y337 67-293 limits assumed): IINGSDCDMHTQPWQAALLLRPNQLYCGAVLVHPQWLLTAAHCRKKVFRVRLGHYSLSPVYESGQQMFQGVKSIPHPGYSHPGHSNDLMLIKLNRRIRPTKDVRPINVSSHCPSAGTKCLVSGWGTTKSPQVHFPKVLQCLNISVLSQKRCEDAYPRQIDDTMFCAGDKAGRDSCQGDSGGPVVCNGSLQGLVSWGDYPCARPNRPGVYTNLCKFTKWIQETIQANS
Description: (§1) (a) Kᵢ values of N- and C-terminal tag conjugates in comparison to unconjugated inhibitors measured by inhibition assays in the presence of HSA. […] All data represent the mean of three measurements ±SD.
(§2) Even though the actual concentration of albumin in human blood is at around 600 μM and thus much higher, a higher albumin concentration in the assay was not possible, as it interfered with the protease activity.

[3] = biological target: T3, mouse serum albumin (MSA) (mouse, UniProt P07724 25-608); assay: fluorescence polarization, dilution series of mouse albumin in PBS
T3 construct: also called mouse albumin
T3 sequence (P07724 25-608 limits assumed): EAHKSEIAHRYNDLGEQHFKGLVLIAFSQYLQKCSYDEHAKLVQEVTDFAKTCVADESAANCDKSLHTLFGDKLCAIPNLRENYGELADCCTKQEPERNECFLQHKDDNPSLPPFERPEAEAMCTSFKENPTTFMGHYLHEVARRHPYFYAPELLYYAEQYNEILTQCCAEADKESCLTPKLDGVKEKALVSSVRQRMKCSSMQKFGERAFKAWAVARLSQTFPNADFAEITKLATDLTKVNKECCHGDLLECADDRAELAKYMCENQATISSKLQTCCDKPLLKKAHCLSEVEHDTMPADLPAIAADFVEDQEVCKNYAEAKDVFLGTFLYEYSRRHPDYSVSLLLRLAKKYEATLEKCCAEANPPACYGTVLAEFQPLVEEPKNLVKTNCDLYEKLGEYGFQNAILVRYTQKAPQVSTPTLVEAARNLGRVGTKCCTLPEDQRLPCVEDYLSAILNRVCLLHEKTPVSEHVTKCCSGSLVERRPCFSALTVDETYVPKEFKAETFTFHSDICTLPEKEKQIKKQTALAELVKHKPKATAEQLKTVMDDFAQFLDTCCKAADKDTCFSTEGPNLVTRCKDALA

[4] = biological target: T4, human Kallikrein-related peptidase 7 (hKLK7) (human, UniProt P49862 30-253); assay: substrate-based activity assay in the presence of 25 µM HSA
T4 construct: Active protease used in substrate-based activity assays and immobilized for phage selection; also called stratum corneum chymotryptic enzyme (SCCE)
T4 sequence (P49862 30-253 limits assumed): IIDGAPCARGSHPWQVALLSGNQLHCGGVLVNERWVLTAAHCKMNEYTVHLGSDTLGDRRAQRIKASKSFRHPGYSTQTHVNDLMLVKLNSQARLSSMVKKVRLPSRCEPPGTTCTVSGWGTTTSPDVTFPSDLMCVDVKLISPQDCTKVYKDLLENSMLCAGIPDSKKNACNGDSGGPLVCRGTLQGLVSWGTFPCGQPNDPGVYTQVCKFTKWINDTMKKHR
Description: as §1, §2

[5] = biological target: T1, human serum albumin (HSA); assay: fluorescence polarization
FXIIa (Factor XIIa) = biological target: T5, FXIIa (Factor XIIa) (human, UniProt P00748 373-615, limits assumed); assay: substrate-based activity assay, off-target selectivity
T5 sequence (looked up): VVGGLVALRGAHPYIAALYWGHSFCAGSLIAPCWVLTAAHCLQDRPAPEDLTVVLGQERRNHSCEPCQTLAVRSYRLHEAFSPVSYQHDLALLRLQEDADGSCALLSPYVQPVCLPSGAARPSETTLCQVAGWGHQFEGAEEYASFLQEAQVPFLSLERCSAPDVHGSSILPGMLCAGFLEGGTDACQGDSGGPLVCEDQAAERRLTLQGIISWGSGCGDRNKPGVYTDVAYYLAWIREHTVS

[6] = biological target: T4, human Kallikrein-related peptidase 7 …; assay: substrate-based activity assay

B1: KLK5 inhibitor 035-tag (C-terminal albumin tag conjugate of 035) (peptide)
peptide 1: GCTRQYPCGKG
peptide 2: EYEK(Palmitoyl)EYE
modifications: bridge I:2-I:8; not fully specified (some residues, N-terminus, bridges); also: chain 2 (albumin tag) attached via PEG2 to Lys10 side chain of chain 1 (branched)
fold loss in affinity (Kd) for HSA on conjugation [1]: 2.1 fold
fold improvement in the Ki value compared to the cyclic peptide alone [2]: 1.8 fold
binding result [3]: binds

B2: N-terminal albumin tag conjugate of KLK7 inhibitor 096 (peptide)
peptide 1: {5(6)‑carboxyfluorescein}-EYEK(Palmitoyl)EYE[PEG2′]
peptide 2: PCLYLARCS
modifications: linker II:2-II:8 via 1,3‑dibromoacetone; also: tag C-terminus joined through PEG2 to inhibitor N-terminus (one linear molecule)
notes: also called N-terminal conjugate (KLK7)
binding result [1]: binds
Ki [4]: 106 nM
fold loss in activity compared to the cyclic peptide alone [4]: 6.6 fold

B3: albumin tag variant peptide 263 (peptide)
peptide: EYEKEYEK
modifications: pentanedioic acid appended to the N-terminus through a PEG2 unit; Lys 4 side chain acylated with palmitic acid; additional C-terminal Lys carries 5(6)-carboxyfluorescein on its side chain
factor recovered in HSA affinity compared to tag-F [5]: 2 fold

B4: albumin tag variant peptide 284 (peptide)
peptide: EYEKEYEK
modifications: 2-naphthalenecarboxylic acid cap at the N-terminus (based on peptide 266: on a gamma-coupled glutamic acid, through PEG2); Lys 4 side chain acylated with palmitic acid; additional C-terminal Lys carries 5(6)-carboxyfluorescein on its side chain
notes: also called tag variant 284
factor of improvement in HSA affinity over peptide 266 [5]: 4 fold

B5: SSSKSSS-tag (peptide)
peptide: SSSK(Palmitoyl)SSS
modifications: also: fluorescein label, position not given here
notes: Tag variant with all Tyr and Glu replaced by Ser; also called tag composed of Ser residues
binding result [3]: binds

B6: N-terminal albumin tag conjugate of KLK5 inhibitor 035 (peptide)
peptide 1: {5(6)‑carboxyfluorescein}-EYEK(Palmitoyl)EYE
peptide 2: GCTRQYPC
modifications: bridge II:2-II:8; not fully specified (C-terminus, bridges); also: chain 1 C-terminus joined via PEG2 to N-terminus of chain 2 (one linear molecule)
notes: also called N-terminal conjugate (KLK5)
binding result [1]: binds
Ki [2]: 23 nM
fold loss in activity compared to the cyclic peptide alone [2]: 10 fold

B7: KLK7 inhibitor 096-tag (C-terminal albumin tag conjugate of 096) (peptide)
peptide 1: PCLYLARCSGKG
peptide 2: EYEK(Palmitoyl)EYE
modifications: bridge I:2-I:8; not fully specified (some residues, N-terminus, bridges); also: chain 2 (albumin tag) attached via PEG2 to Lys11 side chain of chain 1 (branched)
notes: Branched molecule
fold loss in affinity (Kd) for HSA on conjugation [1]: 2.9 fold

B8: albumin tag variant peptide 282 (peptide)
peptide: EYEKEYEK
modifications: biphenyl-3-carboxylic acid cap at the N-terminus (based on peptide 266: on a gamma-coupled glutamic acid, through PEG2); Lys 4 side chain acylated with palmitic acid; additional C-terminal Lys carries 5(6)-carboxyfluorescein on its side chain
notes: also called tag variant 282
factor of improvement in HSA affinity over peptide 266 [5]: 4 fold

GCTRQYPC (linker 2-8 via 1,3‑dibromoacetone, also called compound 035) [peptide 035 (lead KLK5 inhibitor)]
fold weaker than the Ki value for KLK5 (FXIIa (Factor XIIa)): ~4300 fold

B9: albumin tag variant peptide 266 (peptide)
peptide: EYEKEYEK
modifications: benzoic acid coupled to the amine of a gamma-coupled glutamic acid at the N-terminus (through PEG2); Lys 4 side chain acylated with palmitic acid; additional C-terminal Lys carries 5(6)-carboxyfluorescein on its side chain
further factor recovered in HSA affinity by the first aromatic ring [5]: 2 fold

PCLYLARCS (linker 2-8 via 1,3‑dibromoacetone) [peptide 096 (lead KLK7 inhibitor)]
fold better activity than peptide 114 [6]: 2 fold
